Data: a protein production outcome set (Wang et al. 2014)

Assay: label from the status in PepcDB records
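Note: failed if final PepcDB status was selected cloned or expressed and not failed if soluble or beyond.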

Row | Sequence | protein production
1 | MNHRSVRGICATLGVLLVIGCSGPDAKKAKFYAKGKELYDKGDYAKAALEFKNAIQIDPKYAEAYHMLGLVEMKKGNIKGAFGNFTKAVELNPQHQEARLQLGRIYLGAGAPDEAMKEAVEVLKINPASEDAQLLKGAVLIARKEKGKARELLEGLVAKGVKKPDAYSLLASIHALDGNAKDAEAILRKGLAINPSSSDLHLTLAGLCVGTGRTDEAISLLQRVVSLEPGRTDHRLKLAALCWDTGKVAEARKALTDLVAIAPEKEENRLQAAGFLAGKGEADEAEKLLKEGIAGKGKNYKLRFALADLYLNTGKGDQAVTLLTETAGLDKASRQESLQAKNALAQIALDRNRVDEAVKLVTEVLKESPKNTDARFLKGNIHMMKGEGAQAVAEYRTVVTDNPQSVPGFIRLAEAHLLNREKNLAFDNLQNALKIDPENRDALVALARYHVMQKDMKNAEAALRKVLAKSPNDLEAKAELGDLFLAAGDLKRAEAEYGELKRKAPGLPVGYVKMGDIYLHRGKSDKALAELEQAVRLNPSSELLAGSLARLYTRLGKFDKAEFLLDQRLKQNPNDAASYTLLGQMNVARNQYGKARQAYEKALSLNGSNWSAANDLAFLLAETGSGADLDRALTLIEKVKQSRPDDPRVLDTVGWIYYKKGNAGKAVEILSQVHRKTGDSPVIDYHLGMASYKAGDKARAKELLTKAMTSKSGFAGREEAVKTLGIIKG | failed
2 | ASLKDFELSKMLEKVAKESSVGTPRAINEDILDQGYTVEGNQLINHLSVRASHAERMRSNPDSVRSQLGDSVCSNTGYRQLLARGAILTYSFTEYKTNQPVATERFDAGSCRIQGKK | not failed
3 | MLSRIDLYIKHRDIFLKHLELLHKLIEKVEDSSLNESELLNARLVDDMFPFNVQAKIATNFALRACCPLSGKEYKELEGDIDSFCGLKTYVVTAIDYINKLSEPTLEQLNLNVQDTAGFKEISMPASEYMSSFVLPNFFFHISMVYAIAKNNGVSVTKGDFDGIHQYPKGFSWEA | not failed
4 | MELGTPLLLTIAAAGIALLLVLIIRFKIQAFVALLAVSILVAVAAQIPLKDIFTVVTTGVGSTMGKVALLIALGAILGRMIEVSGGVQSLATHFTEKLGAKRVAIALTAVGFLVAIPVFFEVGVIVLVPIVYAFAKIANVHPIKFGLPMAGIMLSIHVAVPPHPGIVAGAGVFGADIGLITLISLIICIPLGFLSYWVASIMNRKDYELLPGVKQQVDEFGSDSLVHVGHDGPGARAIAPPRPGLIMFLIAAPIVQILLGTVGTLTLAKDNYWYGVAAFIGNPFFALLVAVALSFFLLAVRRNWSLKETGEIFEGALPPIASILMVVAAGGVFGEVLRASGIGAALSHTLDSLGLPVIVLGFIISLALRAAQGSATVAIVTTTGLLTSAVMEGGYTPAQIAVIVIAIGFGSLGLSHVTDAGFWTVIRYYGLTVSDGLKTWTVLTTILGLAGFALTYVAWILVGGLGH | failed
5 | SGFRKMAFPSGKVEGCMVQVTCGTTTLNGLWLDDTVYCPRHVICTAEDMLNPNYEDLLIRKSNHSFLVQAGNVQLRVIGHSMQNCLLRLKVDTSNPKTPKYKFVRIQPGQTFSVLACYNGSPSGVYQCAMRPNHTIKGSFLNGSCGSVGFNIDYDCVSFCYMHHMELPTGVHAGTDLEGKFYGPFVDRQTAQAAGTDTTITLNVLAWLYAAVINGDRWFLNRFTTTLNDFNLVAMKYNYEPLTQDHVDILGPLSAQTGIAVLDMCAALKELLQNGMNGRTILGSTILEDEFTPFDVVRQCSGVTFQ | not failed
6 | MSLRVILFDLDGTLIDSAKDIALALEKTLKELGLEEYYPDNVTKYIGGGVRALLEKVLKDKFREEYVEVFRKHYLENPVVYTKPYPEIPYTLEALKSKGFKLAVVSNKLEELSKKILDILNLSGYFDLIVGGDTFGEKKPSPTPVLKTLEILGEEPEKALIVGDTDADIEAGKRAGTKTALALWGYVKLNSQIPDFTLSRPSDLVKLMDNHIVEFEGHHHHHH | not failed
7 | MLIRPFLQYILGAVLLAYVLYPLQIRLETYVSPMLAALSLVTLAVTGFVAPVVVVLASIMESADRILREFGTDPVQLDILESRIKGLTGVEVDIAGELVSSGRDIGTIIVERSTQAFSTITFHLIGIALALFLIYYLLKDGDDLVDWLHRTVPLPVDVQRDFYAEIDDVMLGVLFGHVFVAIVQGIVAGVGLAATGVPNAMFWTAVMVVLAMVPLIGTIPVWGGAVIYLYATDEPLLAVGLFLYSVIIVGLTDDYLRPFAVDRYAKLNPAVILLGILGGAYAFGVMGLLFGPVVLGALKAALRVGLDTWSQIDDGNIG | failed
8 | MHETKVKLSNGLELHVEVGGNPDHPTILLIMGLGAQMLFWPDFFCKSLIDQGFYVIRFDNRDIGLSSKIRHKGKRLNTLKLMSRFTLGLGNQGAPYTLYDMAEDVSLLLEAMRIKKVNVIGASMGGMIAQIIAAKYPEKVEKLALMFTSNNQPLLPPPFPKQLFSLIGKPKSSDEDGIINHSLKLFEIIGSPGYVNQVEAIQTARKLYQRSYHPAGVLQQFLAILCTGSLLQLDKQISQPTLVIHGSRDRLLPPSHGKAVAKAIKGAKFELIQGMGHDIPPHFIPQLSYLFAHHFRS | failed
9 | MATFRKRGKYWEYRVKYTDSAGKQLVASHGGYRLKSSAQDAAEAVEDDLKRGGDPSKQDVLLLDYWDQWAEAYRINGKSINTVYRYKLFRKHLKSRFDGRKLNSIRPIEWQKFINDFAAGKDRKEKTTRKRPRERSKDIVTKMNSYVRGMVKAAINERILFSDFTFGTKTSGVRSSGKVKVLDSRDFAKVKAIAIERASYRNIGALAVYIGSMTGMRISEVLALTWPDIDTKLCVIHVTRSWDHLYGTGFKPTKTDSSVRDIEISPSVIELLNKIHQEQAASYLRTGYRDEDQMIMRDPRHNVITDSACNKALHVIQNKAGIPEDKQITFHGLRHSHVSYLISKGVDIYYISKRLGHSDVTITMKVYGHLLDSQRKQEAHKAVLFMDQI | failed
10 | MGIREDIKTVFEKDPAARSTLEVLCCYPGLHAIWMHRVAHSLWNKDLLFLARLTSHISRALTGIEIHPGAKLGKRVFIDHGSGVVIGETAEVGDDVLIYMGVVLGGTALEKKKRHPTVENNAVLGSGAIVLGPITIGRGAKVGAGSVVVRSVPPEATVVGVPARIAGTPQPSAPSEQLDHNKLPDPVLTVISQVLDRMSRLEERFQAHEKASTTPVPVSFVSSENPSVKKDEQIYSLLKDVIDPAVGIDIVNLGFVKEVTVNGTNVDVNLVLTTSACPMIEYFRNQVKRKVMGIKGIENVTVNILDEPWKWDGAGRQAFH | failed
11 | DDANVVRDRDLEVDTTLKSLSQQIENIRSPEGSRKNPARTCRDLKMCHSDWKSGEYWIDPNQGCNLDAIKVFCNMETGETCVYPTQPSVAQKNWYISKNPKDKRHVWFGESMTDGFQFEYGGQGSDPADVAIQLTFLRLMSTEASQNITYHCKNSVAYMDQQTGNLKKALLLKGSNEIEIRAEGNSRFTYSVTVDGCTSHTGAWGKTVIEYKTTKSSRLPIIDVAPLDVGAPDQEFGFDVGPVCFL | failed
12 | MSAERSRWLQCLGLPATADAIAIKTAYRQLARQWHPDCNPDPQATARFQEIQIAYERLLVLQESATAQPVPQAPPADAALIALKRQFQPQLQDLLADGRWAKAIALTEALQQRLPDDWEVRQWLAICYLRQGQALLVQQQRQQAIVYFEKARRTDPHNPRLQQEIQASHRLASARRA | failed
13 | MKKKDRYTGHRYAKPNRSSENDIYSNSDRYARTTGNKKYKKRKKKWSAKKKIIVTLCIILGIILMIAGIVFAYIKATLSQLGRVPLPEAPETLGISSEVAEKYKDLDVTNIALFGVDSREDNDIGRSDALMILSIDRVHNKIKLTSIARDTYVTVDGYGQTKINHAYAYEGPELAIKTINENFDMNIQGFVTVNFSQLAEIIDYLGGINIAVTEEEREVANRLIQELGVQCEPITESGESVHLTGDQAVIFARNRDTGGDSERTGRQRKVLSAMFDQAKAIDVTQYPGLINMVLSQSVTSLSDNDMLGIGTWAVTSGATMEQMSLPNENCNSSGEIIDGVWYYVYDLDLATDLLHDFIYEENSAD | failed
14 | MATSGFKHLVVVKFKEDTKVDEILKGLENLVSQIDTVKSFEWGEDKESHDMLRQGFTHAFSMTFENKDGYVAFTSHPLHVEFSAAFTAVIDKIVLLDFPVAAVKSSVVATP | not failed
15 | MKTFKGKVTTTLAVLSAMSLFAFSASLLAGSLDLSGRSDDDTQQDTGRKPAQIIDFVGVEKGDKVLDLLAGGGYYSELLSRVVGEKGEVTLQIPKAYLKYAEKSIKVRLANDRLKNVTYLLSEADDLKLSENTYDSAFLVLGFHDMFFKEDSWNFTADEVMPQVLTSLKSGGKLLVIDHDATENSGIRDVKSLHRIDSAFVKADLEKRGFKLVKTSKILENNADDHSKLVFVPELRRKTDRFVMLFEKI | failed
16 | MLHDTPLITTIVAGLCLAFLLGMIASRLRISPLVGYLLAGVIVGPNTGGFRIDSGIINQLAEIGVILLMFGVGLHFSLKDLLSVKAIAIPAAIAQMAFSTFLGSCLGLIMGWGLSSSVVFGLALSTASTVILLRALQERHLIETEKGRIAVGWLIIEDLAMVLILVLIPSLANILGNTKKEAIDPLIQWLDLSIWGIFGLTILKVILFIILMLVIGRRVIPWLLKVSAHSGSRELFRLSVFATALGVAFGAAHLFGVSLSLGAFFAGMVMSESELSHRAAEESLPLRDAFSVLFFVSVGMLFDPGKILSHFFPLLATLFIIIIGKSAGAFFILKAFRYSNATACTISASLAQIGEFSFILAGLSLSLGLLNNDAHDFILGGAILSILVNPLIFIAFDKIKKHLENLPKNSQDTQKIIDIDPKDPDQEFLPMTSKTNHIVIIGYSRIGKCVALSLINRGDPVVIVEESKRLTDKAIADGFEVICGNIIKQDVMNAANMSNAYKVVITMCNTIEVGECIVNIRDMNKDIQIITHTLSDVDTAYLIDLGADIVVTDEEEIANGVIEHITGQRFIKNIAQS | failed
17 | MAMNEIALFKGVRIQPYQKYIDFMFASVLAFIFLVYRIYILFIDYKSVNKKLDILTLFAYFKPHLLYLLIGTAIIFVICKLIAQFLIRFKTKDLAEMIETQGFHNRTVIKKTTEYIPIDYKQTEYDYYPTMFYKRGKKSFVIHIKKDGSRFQDNYLELETIIEPMFNSELVEKKHIGRYLRYEFMPLKYKKRIVMNGEQESNTIFYDTKIAITHQITWDFVKAPHGLVTGITGGGKTYFLFYVIRELFRRHSEVRLLDPKVSDLSFMKRVIGDDKVADTKGQILKQLREANNEMEERFRLMNDSSDYKIGNDFRNFDMRPYFIIFDEVTAFTSTLDKKELQEMNDYLINIIMKGRQAGVFMFLTAQRPDADVIKGNVRDQLGLRVSLGNLSNDGYRMTFGQTDKEFQTIHDSDIGRGYISILGQYNEPILFDAPLMEQYDFVEDVKQILNKE | failed
18 | MLKLSNFGPGALVAAAFIGPGTVVTASLAGANFGYALLWALLFSVVACVILQEMSARIGLVTQAGLGENIRNNLTSGWLRWLALLLIFSAIAIGNSVYQGGNLSGASLGASELLGPVPVLDVWLSNAWALIIGIIALLILWSGNARVIERALIVMVLLMSVAFIGTFLLTDPDWGAVFNGTFGFSMPTGATLTVVALIGTTVVPYNIFLHASSVSKKWKTAEELPAARRDLFLSIPFGGLISMAIVATAASAFFGQQVEIESAGDLAESLRPLFGDGATYLMAIGLFAAGISSATTAPLASAYALCGIMGWSVNLRSRAFRIIWFTILVIGIIISSVGIKPVTVIWFAQVANGILLPIIVGFLWWLCQSPLLGKYRNSLLQNILAAIIFLISVVLSGRSLGSAFGFW | failed
19 | MAEQMRRVARLFGDWPETIIWTCLEGTMGDIYVDDSQSPQSALALYGRQSFFGFLAGQPHRDLLKICEGKNIILVPQNQAWSDLIEEVYGDGVRFFTRYATKKDTEFDLGHLQKLVDDLPESFDMKLIDRNLYETCLVEEWSRDLVGNYIDVEQFLDLGLGCVILHKGQVVSGASSYASYSAGIEIEVDTREDYRGLGLAKACAAQLILACLDRGLYPSWDAHTLTSLKLAEKLGYELDKAYQAYEWR | not failed
